{"source": "patent US20040002450A1", "about": "“Y17 - isolated molecules comprising epitopes containing sulfated moieties, antibodies to such epitopes, and uses thereof” (priority 2000, published 2004)", "conditions_in_all_cases": "remark: other sources report otherwise", "key": {"[1]": {"molecular_target": "Y1 scFv", "sequence (chain, as listed by the source)": "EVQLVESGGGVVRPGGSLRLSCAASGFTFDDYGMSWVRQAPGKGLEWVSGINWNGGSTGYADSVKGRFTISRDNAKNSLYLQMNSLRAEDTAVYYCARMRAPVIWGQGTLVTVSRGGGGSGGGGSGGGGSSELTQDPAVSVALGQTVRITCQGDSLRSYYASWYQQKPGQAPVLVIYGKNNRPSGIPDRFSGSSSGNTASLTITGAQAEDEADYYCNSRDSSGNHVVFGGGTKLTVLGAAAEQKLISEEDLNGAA", "experiment": "competition ELISA on coated glycocalicin, 0.25 µg/well Y1, peptide 2.5 µM"}, "[2]": {"molecular_target": "Y1 scFv", "experiment": "competitive FACS, 1 µg Y1-scFv on ~10^7 washed platelets, peptide 200 µM"}, "[3]": {"molecular_target": "Y1 scFv", "experiment": "competition ELISA on coated glycocalicin, 0.25 µg/well Y1, peptide 25 µM"}, "[4]": {"molecular_target": "Y1 scFv", "experiment": "competition ELISA on coated glycocalicin, 0.25 µg/well Y1, peptide 0.5 µM"}, "[5]": {"molecular_target": "Y1 scFv", "experiment": "competition ELISA on coated glycocalicin, 0.25 µg/well Y1, peptide 200 µM"}, "[6]": {"molecular_target": "Y1 scFv", "experiment": "competitive FACS, 1 µg Y1-scFv on ~10^7 washed platelets, peptide 2.5 µM"}}, "note": "Non-standard residues stand in square brackets, D forms with d. No end group written: not given here. sY = N[C@@H](Cc1ccc(OS(=O)(=O)O)cc1)C(=O)O", "data": [{"binder": "GDEGDTDL[sY]D[sY][sY]PEEDTE", "note": "[P-1-S]", "values": [{"measurement": "Residual Binding of Y1 (% of baseline) (% of baseline)", "setting": "[1]", "result": 62}, {"measurement": "Residual Binding of Y1 (% of baseline) (Geo Mean) (% of baseline)", "setting": "[2]", "result": 5}, {"measurement": "Residual Binding of Y1 (% of baseline) (% of baseline)", "setting": "[3]", "result": 25}, {"measurement": "Residual Binding of Y1 (% of baseline) (% of baseline)", "setting": "[4]", "result": 89}, {"measurement": "Residual Binding of Y1 (% of baseline) (% of baseline)", "setting": "[5]", "result": 0}, {"measurement": "Residual Binding of Y1 (% of baseline) (Geo Mean) (% of baseline)", "setting": "[6]", "result": 41}]}]}
